The supplement of paper PMC6379048

Key:
Experiment in all cases: EC50 of free RNA motif oligo competing protein binding to immobilised probe
CPSF1 = target: T1, CPSF1 (UniProt Q10570)
T1 sequence: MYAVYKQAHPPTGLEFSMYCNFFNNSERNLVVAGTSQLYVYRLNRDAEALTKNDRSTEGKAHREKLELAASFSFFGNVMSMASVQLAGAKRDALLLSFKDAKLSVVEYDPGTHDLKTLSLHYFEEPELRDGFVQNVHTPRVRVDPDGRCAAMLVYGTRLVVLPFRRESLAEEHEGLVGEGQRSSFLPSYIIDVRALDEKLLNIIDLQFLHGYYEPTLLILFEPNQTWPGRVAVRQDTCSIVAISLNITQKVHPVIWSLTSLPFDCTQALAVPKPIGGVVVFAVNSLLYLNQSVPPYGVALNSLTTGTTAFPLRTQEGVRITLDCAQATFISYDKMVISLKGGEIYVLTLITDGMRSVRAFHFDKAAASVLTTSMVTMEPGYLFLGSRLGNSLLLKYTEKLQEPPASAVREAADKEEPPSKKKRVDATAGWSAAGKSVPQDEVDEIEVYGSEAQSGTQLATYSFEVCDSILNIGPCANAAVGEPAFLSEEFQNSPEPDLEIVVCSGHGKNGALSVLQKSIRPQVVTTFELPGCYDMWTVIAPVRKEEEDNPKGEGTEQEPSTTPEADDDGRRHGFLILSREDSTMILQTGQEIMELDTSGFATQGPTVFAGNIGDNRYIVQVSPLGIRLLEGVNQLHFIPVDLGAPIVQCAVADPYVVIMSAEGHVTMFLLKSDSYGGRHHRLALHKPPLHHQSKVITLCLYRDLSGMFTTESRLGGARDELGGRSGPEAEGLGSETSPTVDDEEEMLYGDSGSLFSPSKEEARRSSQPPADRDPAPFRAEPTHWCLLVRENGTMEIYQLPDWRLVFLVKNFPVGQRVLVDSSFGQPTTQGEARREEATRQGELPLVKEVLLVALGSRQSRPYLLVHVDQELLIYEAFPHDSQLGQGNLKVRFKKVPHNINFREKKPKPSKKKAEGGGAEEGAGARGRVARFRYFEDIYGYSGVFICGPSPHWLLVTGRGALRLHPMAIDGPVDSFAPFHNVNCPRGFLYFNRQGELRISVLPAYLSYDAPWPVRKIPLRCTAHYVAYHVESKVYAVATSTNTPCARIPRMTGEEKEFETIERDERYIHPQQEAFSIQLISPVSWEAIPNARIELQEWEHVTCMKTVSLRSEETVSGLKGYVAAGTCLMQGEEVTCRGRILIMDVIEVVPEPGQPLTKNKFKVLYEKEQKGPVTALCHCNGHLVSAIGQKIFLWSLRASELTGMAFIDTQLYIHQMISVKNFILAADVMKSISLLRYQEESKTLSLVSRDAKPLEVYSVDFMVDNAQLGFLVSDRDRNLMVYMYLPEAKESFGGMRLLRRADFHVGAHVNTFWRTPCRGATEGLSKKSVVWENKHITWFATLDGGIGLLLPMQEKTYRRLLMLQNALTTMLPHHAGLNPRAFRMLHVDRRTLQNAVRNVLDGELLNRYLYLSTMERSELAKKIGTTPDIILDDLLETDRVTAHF
Procedure, shortened: (§1)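 HEK293-FT lysate (2.5 mg protein/well) was treated with free RNA oligos (0 nM to 30 μM) for 1 h at 4°C, then with the same oligos on NHS-Sepharose beads for 30 min at 4°C. Bound proteins were quantified by label-free LC-MS/MS relative to the control. EC50 came from a four-parameter log-logistic fit, and Kd is EC50 times a protein-dependent depletion factor.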

FUBP3 = target: T2, FUBP3 (UniProt Q96I24)
T2 sequence: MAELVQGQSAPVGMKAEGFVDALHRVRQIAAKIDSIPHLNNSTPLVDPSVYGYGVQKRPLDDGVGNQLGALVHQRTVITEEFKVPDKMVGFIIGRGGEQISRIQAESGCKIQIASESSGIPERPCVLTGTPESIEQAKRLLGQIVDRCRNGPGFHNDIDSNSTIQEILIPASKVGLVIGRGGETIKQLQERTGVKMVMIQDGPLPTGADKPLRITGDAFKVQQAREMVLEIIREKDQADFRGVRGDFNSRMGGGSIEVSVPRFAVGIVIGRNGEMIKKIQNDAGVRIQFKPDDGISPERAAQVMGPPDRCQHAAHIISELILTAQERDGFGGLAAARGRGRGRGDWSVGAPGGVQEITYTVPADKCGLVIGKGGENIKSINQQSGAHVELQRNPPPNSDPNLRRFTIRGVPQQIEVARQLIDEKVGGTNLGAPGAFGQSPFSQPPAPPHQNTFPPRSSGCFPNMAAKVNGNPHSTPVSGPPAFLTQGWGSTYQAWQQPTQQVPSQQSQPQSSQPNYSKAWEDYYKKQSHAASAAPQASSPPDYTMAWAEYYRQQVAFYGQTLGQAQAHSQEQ
Procedure, shortened: as §1

LSM4 = target: T3, LSM4 (UniProt Q9Y4Z0)
T3 sequence: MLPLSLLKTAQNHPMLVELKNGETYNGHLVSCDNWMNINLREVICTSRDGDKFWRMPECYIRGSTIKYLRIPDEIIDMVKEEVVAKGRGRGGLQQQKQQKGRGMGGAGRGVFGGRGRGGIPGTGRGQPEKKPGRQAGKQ
Procedure, shortened: as §1

RBMS1 = target: T4, RBMS1 (UniProt P29558)
T4 sequence: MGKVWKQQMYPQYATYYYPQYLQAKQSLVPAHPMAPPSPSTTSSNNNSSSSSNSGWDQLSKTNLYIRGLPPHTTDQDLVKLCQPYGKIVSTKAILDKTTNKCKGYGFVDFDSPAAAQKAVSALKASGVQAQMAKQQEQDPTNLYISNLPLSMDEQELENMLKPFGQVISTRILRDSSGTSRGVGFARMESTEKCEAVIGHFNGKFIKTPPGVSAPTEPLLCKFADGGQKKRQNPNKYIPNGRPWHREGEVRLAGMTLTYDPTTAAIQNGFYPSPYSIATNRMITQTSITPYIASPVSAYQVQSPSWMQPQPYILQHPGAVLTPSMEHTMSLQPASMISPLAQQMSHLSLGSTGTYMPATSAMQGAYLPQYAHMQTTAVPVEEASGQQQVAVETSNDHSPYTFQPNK
Procedure, shortened: as §1

Sequence	EC50 (CPSF1)	EC50 (FUBP3)	EC50 (LSM4)	EC50 (RBMS1)
UAUUUAU	1710 nM	802 nM	599 nM	458 nM
AAUAAA	64.4 nM	2150 nM	465 nM	1570 nM
